# Experimental data taken from the DeepSol protein solubility set.
# Assay: soluble on expression in E. coli; label from the status in PepcDB or PDB records
row,Sequence,soluble on expression in E. coli
1,MDSGVEASGYPPVGRAKILLERAVNPIPSPRRELEQYTTPADIAVRIAVDALLRGLLEGALAADLAAGTCRLGLALLLYGASRVAAVEADGRLAGLCLGAAEKLGLGGRIFFVASRVSRRRGPLAAGSVDLVATNPPFGVWRRGADWEVLEYALRLKPRAVYAIVKSGNMGFHAAKAAGLGYSTLLISREHFPIPASMPGHRSRVRRVSVDVVLFTRGG,soluble
2,GPLGSEQIGKLRSELEMVSGNVRVMSEMLTELVPTQAEPADLELLQELNRTCRAMQQRVLELIPQIANEQLTEELLIVNDNLNNVFLRHERFERFRTGQTTKA,soluble
3,MSLIYFFMVDAVELSRKYEGKIEIYPKVPITSYNDFALIYTPGVAEVSKAIYKDPDKSFELTSRWNTIAVVTDGTRVLGLGNIGPTAAMPVMEGKSLLFKYLGGVDAIPLPINVKSADEFTNVVKALETSFGGINLEDIESPKCFYILEKLQSMLNIPVWHDDQQGTAAAILAGLINAMILTNKDPKESKVVFYGAGASNIAAARILAKYGFKYENIVMIDSKGPLYADREDVDHLMLHHKWKYELAIKTNKWEAKEIKDAFSGADAVVAASTPGPNVIKKEWISLMNKEAIVFALANPVPEIWPQDAKEAGAKIVATGRSDFPNQVNNSLIFPAIFRGVLDSRAKAITDEMTIAASEALAKYARDRGINENYIIPRMDEWEAFYEEAAAVASKAVELGLARVKKSREEFREIAKERIIRARKIMNLVISTWSPEGHHHHHH,not soluble
4,MKIAIIGLGLMGGSLGLCLKENKLISCVYGMDLSKENEKDALQLGLIHELIEFKDLALCDMIFVATPVNAIIEILQKLVDLPSNVTIIELGSTKRKIIESLPKNLIKQTLFAHPMTGTENSGPKAAFKELYKDAVCVLCDSEIADDLHQKRAVEIFSHLGMKIVFMDSKAHDHHAAIISHLPHVISFSLANFVMKEEDKRNIVHLAGGSFKGMSRIAKSSPQMWESIFLQNKDNLLSSIDFFQQELERCKQMIQLDKNDELREWMKQANTLREILMGHHHHHHSH,soluble
5,MGSDKIHHHHHHMSIGIVIASHGEFAAGIKQSGSMIFGEQEKVQVVTFMPSEGPTDLHAKIEAAIATFDAEDEVLVLADLWSGSPFNQASAVMGENPERKIAIITGLNLPMLIQAYTERMMDASAGVDKVVANIMKEAKGGIKVLPEELQPAEETAVAAAPAAVQGAIPEGTVIGDGKIKINLARIDSRLLHGQVATAWTPDSRANRIIVVSDTVSKDELRKKLIEQAAPTGVKANVIPIKKMIEVAKDPRFGDTKALLLFETPQDALATIEGGVPIETLNVGSMAHSTGKTMLNKVLSMDKDDVATFEKLRDLGVKFDVRKVPADSKSDLFGLINKADVQ,not soluble
6,MTKITYKVASEHPFPADAAAAAASLAAYEALDDVTKARVDQMVDWIMKNCLWQFHSRAWDRKRQNEGILGIAAKLLAGEPFTPETPEDRCYWVDSVTLQRAYLATCPWLATMSKGDIRALMKELHARVDYLTVTGSLNEELTDLHYLEHHHHHH,not soluble
7,MPVLALRLTALAALVISVSGCVMEAYGSRARSDAQSWIGLPIQDVIKRFGEPERVTGDAARQKYVWKEYENYSHDYDYTYYEQGHGNTPNSSVLNQKTGTANQSGYYTCIYEFFADASGRVVDATARGECR,not soluble
8,RDHIILIGWNEKTNRLLKDLQLGAPSKTVVLIDESLTEGPLIENVHFIRGHAADDGTLKRANITEAESVMITADQYKSETDADMLSVLTLLSVKGLNPLAYCIVEILTDRFVTNAERAGANQIIGTSEFISRAMLQHYQVKLR,not soluble
9,MSSSAPKYTTFQGSQNFRLRIVLATLSGKPIKIEKIRSGDLNPGLKDYEVSFLRLIESVTNGSVIEISYTGTTVIYRPGIIVGGASTHICPSSKPVGYFVEPMLYLAPFSKKKFSILFKGITASHNDAGIEAIKWGLMPVMEKFGVRECALHTLKRGSPPLGGGEVHLVVDSLIAQPITMHEIDRPIISSITGVAYSTRVSPSLVNRMIDGAKKVLKNLQCEVNITADVWRGENSGKSPGWGITLVAQSKQKGWSYFAEDIGDAGSIPEELGEKVACQLLEEISKSAAVGRNQLPLAIVYMVIGKEDIGRLRINKEQIDERFIILLRDIKKIFNTEVFLKPVDEADNEDMIATIKGIGFTNTSKKIA,not soluble
10,MSFRLRIDDSVTADHVVCWGVTVALLKKSLFGSTPEERKRRVEEKISQAVVELGLEGLSDEFRVSMLSAWVRYYVFRVDAGEKTFVLNVLSPNSPVKSFRDILDPLRGLFEKFRENIAVPVAYTDEFMLQEWINGLPLSELRDGDVMRSDEKSRRIIEESIYLTARLLYRLWKEGFVYSPWEDYEAMYCDGKIVLLDVTRFEKKPSNESFLQHYYGAPFCPPDVLKDPKSPVNRLYFRGTSERDYFGVEREKYEELFLKGIRDECGSEQEFKILLGDCEAVERIKRV,not soluble
11,MLYDKWDVIMKKVQDIVEAIPKNGTLSIVQRDLESNGDKFALKNPPQSFNLEHHHHHH,not soluble
12,SATGTPESQARFGQSVKGLLTEKVTTCGTDVIALTKQVLKGSRSSELLGQAARNMVLQEDAILHSEDSLRKMAIITTHLQYQQEAIQKNVEQSSDLQDQLNHLLK,soluble
13,MGSDKIHHHHHHMRIMPINSFENYPMSWKPSIDKAEKPIYKALAGQLEQDILNGVLLPGTKLPPQRELADYLDLNVSTISKAFKVCELKGLLSATVGSGTFVSYDALSNAYLLEDTKPTHLIEMGAILPDHASYEPLLYQLKNMVHEEDYEKWFSYGRAGESLWQKDAAVKLIQRGGFETSVDHILFANGGQNAIAATLASLCKPGDRIGVDHHTYPGLKTVASLLSVQIVPIKSENDEMSPESLEYACKNENIKGLYLIPDYHNPTTSFMSVENRRMVADIVKKYNLFVIEDASYHLLNKNPLPALASFAPQQVIHIASLSKSLAPGLRLAYVAVPRQYKEPISKALYNLNITVSPLLAELTARTIVSNQFEVLIESHREQTIRRNQLVNRYVAGYTCLGVETGIFRWLLLPGKMSGAEFEELAARLGVQVYAAERFVVGNSCPERAVRVSVCAPKTLEELEQGLMILRRLLDDLT,not soluble
14,GKVLDAIIQEKKSGRIPGIYGRLGDLGAIDEKYDIAISSCCHALDYIVVDSIDTAQECVNFLKKHNIGIATFIGLDKMTVWAKKMSKIQTPENTPRLFDLVKVKNEEIRQAFYFALRDTLVANNLDQATRVAYQRDRRWRVVTLQGQIIEQSGTMSGGLEHHHHHH,soluble
15,SLRIEHFETISCDAGWRNYYFLKVVTSDGIVGWSEYDESFGPPGLTAVIEQLGARLVGKSVYDHEEAYGRLAASLRPAPYGLSAEAIGAIENALLDAKAKSLGLPVYQLLGGKHRGSIPIYWSHCATWRISHPNLYPPAIVDLDGVKKAGEDARKSGISALKTNLFINENGKPRQWMAGFGSPYAPSLNVDKALLRNLRAHLEALRDGAGPDVDILVDLNFNARTEGYLSLINAIKDFDLFWVELDIYNPDAMAYIRQRSHAPIAACETLFGIRQFLPYFQAQSMDVAIVDAVWNGVWQAMKIASVADAFDVNIAPHNFYSHLSTMMNVHFAAAVPNLRVMEVDVDRLAWDDQLFTRTPEIVNGAIQVPDAPGWGCDPIEEALRAHPPQVRRSHLGL,soluble
16,SLVELQEIFDVSYGSKLDLNKMSSFNPTINFVGRSGKNNGVTASVDLLKNTKPYPAGLLTVALGGSVLSTFLQNKPFYTAQNVAVLNPKTEMTEQQKLFYCAAIFANAYRFSACGREANRTLRQLFVPSLDEIPSWVESVNLNPSAGVTEPKLKESLDLPVVRQSKRLDEIFTIQNGIAATKLKEFEQRQKDTVVYIRPASTQARTLRSYIARDSVDEKHIFPCHTLFTSTNGEGSHTYSYVSTCEFVANSDVAVLTPIQSDMPIEVKLYYAKCITANRYLFSYGRKPKGEKLKSIMLPYFDQQEDFDYICRFIHTLLFSNNL,not soluble
17,MSLKQIVGHKLLNDVIRPLKKGDGRSAWNVLIVDTLAMRMLSSCCKMHNIMEEGITIVEDLNKRREPLPTLEAIYLIAPTAESIDKLIQDYCARNLYKCAHVFFTEACSDQLFSTLSKSAAARFIKTLKEINIAFTPYESQVFNLDSPDTFFLYYNAQKQGGLTSNLERIAEQIATVCATLGEYPSLRYRADFERNVELGHLVEQKLDAYKADDPSMGEGADKARSQLIIIDRGYDAITPLLHELTLQAMCYDLLGIENDVYKYETGGSDENLEKEVLLDENDDLWVEMRHKHIAVVSQEVTKNLKKFSESKGNKGTMDSKSIKDLSMLIKRMPQHKKELNKFSTHISLAEECMKQYQQGVDKLCKVEQDLSTGIDAEGERVRDAMKLMVPLLIDPAVRCEDRLRLILLYILSKNGITDENLNKLLQHANISMADKETITNAAYLGLNIVTDTGRKKTWTPTKKERPHEQVYQSSRWVPVIKDIIEDAIDERLDTKHFPFLAGRQVNQGYRAPASARYGQWHKERGQQSNYRSGPRLIIYIIGGVTFSEMRACYEVTAARKPWEVVIGSDRIITPDKFLTNLRDLNKPRDI,not soluble
18,SAQEEGGSLPEVRARVRAAHGIPDLAQKLHFYDRWAPDYDQDVATLLYRAPRLAVDCLTQALPGPPHSALILDVACGTGLVAAELRAPGFLQLHGVDGSPGMLEQARAPGLYQRLSLCTLGQEPLPSPEGTFDAVLIVGALSDGQVPCNAIPELHVTKPGGLVCLTTRTNWSNLQYKEALEATLDRLEQAGMWEGLVAWPVDRLWTAGSWLPPSWWWYPASLPRMASSPALSTCTESGRRPRLRK,soluble
19,YWGPLDVGEAKSLPGMEDPKLVYIPSIAPSNMVLYRGDKYSELDGKILVGALKLTHINVVGINDGKLTESQRLLEKLGERIRDITISPDGYIYFSTDSGKIFRLTEQ,not soluble
20,TSPTTTSTGTGTGSSTDQAISPLVEGENAPEVTTAKLGFIALTDAAPLIIAKEKGFYAKYGMPDVEVLKQASWGTTRDNLVLGSASGGIDGAHILTPMPYLITMGTVTDGKPTPMYILARLNVNGQGIQLGNNYKDLKVGTDAAPLKEAFAKVTDPKVAMTFPGGTHDMWIRYWLAAGGMEPGKDFSTIVVPPAQMVANVKVNAMESFCVGEPWPLQTVNQGVGYQALTTGQLWKDHPEKAFGMRADWVDQNPKAAKALLMAVMEAQQWCDQAENKEEMCQILSKREWFKVPFEDIIDRSKGIYNFGNGQETFEDQEIMQKYWVDNASYPYKSHDQWFLTENIRWGYLPASTDTKAIVDKVNREDLWREAAQALEVPADQIPSSPSRGIETFFDGITFDPENPQAYLDSLKIKSIKA,soluble
21,MGSDKIHHHHHHMSMEAASLDAVSEEQAQSVSILEQAIFATKQTDSSRAEELIRSLTEEALKGTVQWDKNLTVTFNKAITRLDDIISKQLAAIMHNEELQKLEGSWRGLHHTVKNSETNETLKIRVMSLSKKELHKDLSKAVEFDQSQMFKKIYEAEFGTPGGEPYGCLVGDYEFSNHPEDVETLSLISNVAAAGFCPFVSAAGSSLFGFDEWTELSKPRDLEKVFESLEYTQWRSFRDSDDSRFVTLTMPRVLARLPYGEATKPVEEFCYEEFELDLESGRAKVADHDDYCWMNAAYVMATNMGQAFSKYGFCTAIRGAEGGGKVEGLPAHVFTSDDGDPDLKCPTEIGITDRREAELSKLGFLPLCHYKHTDYAVFFGSQSCQKPKIMSNHDATANAAISARLPYLMATSRFAHYLKVMARDKIGSFMEAEDVESWLNRWILSFVNASEGGGQEIRAKYPLADAKVEVKEIPGQPGSYNAVAWLRPWLQMEELTASLRLVAKIPKVG,not soluble
22,MGSDKIHHHHHHMPKLASIAPSMESTRPLLQPITVVNRQLQAHCHVMSHSHLWGQFVYASQGVLAVNTPAARYLVTPEQGVWVNSNISHSVTAITEVRLTSFYLDESQCQALPEQSCVLNVAPFLHALIQEARLIPSDFDWQGPRGRLLRLIRDWLSEAKNAPFHLPYSSHPKLMQLFGELQNNPANQDNIATWGQRLGASSRTLSRLIKAETGLSYRHWRQRLNLQLSLSLLAQGHSINHIADSLGYASPSAFIHMFKQQTGDSPARYRK,not soluble
